Series [1] deals with UHRF1 SRA SUVH5 finger swap (/ A. thaliana finger loop) (UniProt Q96T88). The series can be described thus: fluorescence polarization. The note with it: 0.05% NP-40, 10 nM FAM-DNA (temperature not stated), ITC: 25 mM HEPES, 1 mM DTT, 25 C. Background: In fluorescence polarisation assays a small probe gives low polarisation when free and higher when bound to something large.
The target of series [2] is T1, UHRF1 SRA (WT) (UniProt Q96T88 414-616).
T1 sequence: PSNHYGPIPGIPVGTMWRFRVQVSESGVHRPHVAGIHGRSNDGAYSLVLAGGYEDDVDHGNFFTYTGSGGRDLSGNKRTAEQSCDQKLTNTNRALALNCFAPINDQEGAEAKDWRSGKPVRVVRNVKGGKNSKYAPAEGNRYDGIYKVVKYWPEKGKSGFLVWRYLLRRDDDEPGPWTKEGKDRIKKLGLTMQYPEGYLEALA
Briefly: ITC; 35 uM protein in cell, 430 uM DNA in syringe; n 0.5-1.0; FP: 25 mM HEPES pH 7.5, 100 mM NaCl, 0.05% NP-40, 10 nM FAM-DNA (temperature not stated); ITC: 25 mM HEPES, 100 mM NaCl, 1 mM DTT, 25 C. To be noted: protein: recombinant; tags: N-terminal His6-MBP (retained); blunt. (In ITC the heat of successive injections is recorded.)

Broadly, the Kd is the constant that tells how readily two partners part at equilibrium. Read a low Kd as a tighter complex.

Chain of UHRF1 SRA SUVH5 finger swap (/ A. thaliana finger loop) (Q96T88 whole entry): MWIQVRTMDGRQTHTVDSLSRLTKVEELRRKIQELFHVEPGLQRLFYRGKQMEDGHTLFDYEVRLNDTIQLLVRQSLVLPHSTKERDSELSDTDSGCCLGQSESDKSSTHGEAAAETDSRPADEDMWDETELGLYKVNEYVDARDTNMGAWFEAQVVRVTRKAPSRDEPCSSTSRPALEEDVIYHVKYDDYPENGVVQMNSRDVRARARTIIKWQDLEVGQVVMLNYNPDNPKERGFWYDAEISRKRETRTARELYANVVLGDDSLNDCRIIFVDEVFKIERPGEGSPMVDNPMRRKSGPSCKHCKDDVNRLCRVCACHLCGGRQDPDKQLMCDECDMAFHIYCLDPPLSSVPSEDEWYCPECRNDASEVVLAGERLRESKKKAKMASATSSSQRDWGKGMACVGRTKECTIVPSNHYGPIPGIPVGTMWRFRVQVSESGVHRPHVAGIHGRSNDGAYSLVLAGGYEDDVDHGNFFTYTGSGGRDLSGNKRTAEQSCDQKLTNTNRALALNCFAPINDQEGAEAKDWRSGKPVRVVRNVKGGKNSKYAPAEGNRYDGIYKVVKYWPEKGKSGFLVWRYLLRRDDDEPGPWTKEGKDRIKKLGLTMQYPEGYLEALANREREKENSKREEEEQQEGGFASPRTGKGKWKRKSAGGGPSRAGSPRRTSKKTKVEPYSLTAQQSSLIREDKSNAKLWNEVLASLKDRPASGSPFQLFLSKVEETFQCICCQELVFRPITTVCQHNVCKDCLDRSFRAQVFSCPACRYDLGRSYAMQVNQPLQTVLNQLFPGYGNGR

In series [1] (5mC at position 6 of strand 1, FP: 25 mM HEPES pH 7.5, 100 mM NaCl), “CCATGCGCTGAC (double strand) [He5mC (FAM)]” registered an equilibrium dissociation constant (Kd) of 200 nM.
Turning to CCATGCGCTGAC (double strand) [UnDNA], the Kd in series [1] (FP: 25 mM HEPES pH 7.5, 100 mM NaCl) came out at 200 nM.
In series [1] (5mC at position 6 of strand 1 and position 6 of strand 2, FP: 25 mM HEPES pH 7.5, 100 mM NaCl), CCATGCGCTGAC (double strand) [Sy5mC] showed a dissociation constant (Kd) of 200 nM.

B1: He5mC (unlabelled, ITC) (dsDNA)
DNA 1: CCATGCGCTGAC
DNA 2: GTCAGCGCATGG
modifications: 5mC at position 6 of strand 1
Take B1: in series [2], the binding result is given as “binds”.

For the origin of these results see publication PMC6816099, “The finger loop of the SRA domain in the E3 ligase UHRF1 is a regulator of ubiquitin targeting and is required for the maintenance of DNA methylation”.
